These results are taken from US8697349.

A value given as a limit tells only on which side of the number the result lay.

For assay [1], the target named is Cy5-labeled Goat anti mouse IgG (AP127S, available from CHEMICON International Inc.) (goat). Kind of assay: Rabbit anti goat IgG fixed on AZO film via synthetic peptides, probed with Cy5-labeled goat IgG, array scanner; reference: antibody directly light-fixed.
Assay [2] has the same target. As to the kind of experiment: Cy5 fluorescence of antibody at peptide spot on AZO film after 17 h light irradiation, array scanner; reference: water instead of peptide.

Turning to “anti goat IgG rabbit-IgG (A50-100A, available from Bethyl Laboratories, Inc.) (antibody)”, the immobilized antibody activity, fold over Comparative Example 2 in assay [1] is 3 to 30 fold. IAAAIAAIAAAI [synthetic peptide IAA …] registered a fixability, fold over Comparative Example 1 in assay [2] of more than 10 fold. In assay [2], IAYAIAAIAAAI [synthetic peptide IAY …] had a fixability, fold over Comparative Example 1 of more than 10 fold.

Molecule IAEAIAAIAAAI [synthetic peptide IAE …] displayed a fixability, fold over Comparative Example 1 in assay [2] of more than 10 fold. On the same count and under the same terms, for IPTAIAAIAAAI [synthetic peptide IPT …] the value was more than 10 fold; for IQTAIAAIAAAI [synthetic peptide IQT …], more than 10 fold. On the same count and under the same terms, for ISTAIAAIAAAI [synthetic peptide IST …] the value was more than 10 fold; for ATAAIAAIAAAI [synthetic peptide ATA …], more than 10 fold. Same read-out and setting: for INSAIAAIAAAI [synthetic peptide INS …] the value was more than 10 fold; for IVSAIAAIAAAI [synthetic peptide IVS …], more than 10 fold.

Turning to WATAIAAIAAAI [synthetic peptide WAT …], the fixability, fold over Comparative Example 1 in assay [2] was more than 10 fold. The same measure, in the same setting: as for PATAIAAIAAAI [synthetic peptide PAT …], the figure is more than 10 fold; as for VAAAIAAIAAAI [synthetic peptide VAA …], more than 10 fold; as for IGSAIAAIAAAI [synthetic peptide IGS …], more than 10 fold. The same measure, in the same setting: as for IHTAIAAIAAAI [synthetic peptide IHT …], the figure is more than 10 fold; as for IITAIAAIAAAI [synthetic peptide IIT …], more than 10 fold. Still for that read-out and setting: as for ISSAIAAIAAAI [synthetic peptide ISS …], the figure is more than 10 fold; as for ITSAIAAIAAAI [synthetic peptide ITS …], more than 10 fold. Turning to LAAAIAAIAAAI [synthetic peptide LAA …], in assay [2], the fixability, fold over Comparative Example 1 is more than 10 fold.

Regarding QAAAIAAIAAAI [synthetic peptide QAA …], the fixability, fold over Comparative Example 1 in assay [2] was more than 10 fold. With LATAIAAIAAAI [synthetic peptide LAT …], the fixability, fold over Comparative Example 1 in assay [2] was more than 10 fold. Same read-out and setting: as for ITTAIAAIAAAI [synthetic peptide ITT …], the figure is more than 10 fold; as for VATAIAAIAAAI [synthetic peptide VAT …], more than 10 fold. Same read-out and setting: for FAAAIAAIAAAI [synthetic peptide FAA …] the value was more than 10 fold; for AATAIAAIAAAI [synthetic peptide AAT …], more than 10 fold; for AAAAIAAIAAAI [synthetic peptide AAA …], more than 10 fold. Still for that read-out and setting: for IAIAIAAIAAAI [synthetic peptide IAI …] the value was more than 10 fold. In turn, PAAAIAAIAAAI [synthetic peptide PAA …] showed a fixability, fold over Comparative Example 1 in assay [2] of more than 10 fold. The molecule IATAIAAIAAAI [synthetic peptide IAT …] yielded a fixability, fold over Comparative Example 1 in assay [2] of more than 10 fold. On the same count and under the same terms, as for IQSAIAAIAAAI [synthetic peptide IQS …], the figure is more than 10 fold; as for IASAIAAIAAAI [synthetic peptide IAS …], more than 10 fold. On to IMTAIAAIAAAI [synthetic peptide IMT …], for which, in assay [2], the fixability, fold over Comparative Example 1 is more than 10 fold. Still for that read-out and setting: for FATAIAAIAAAI [synthetic peptide FAT …] the value was more than 10 fold.
